In PMC3166965:

B1: hSLIV 9 bp stem (structured_RNA)
RNA: GGGCCCGGUAUUGCAGUACCUCCGGGUCC
B2: hSLII (structured_RNA)
RNA: GGGCUGCCAUUGCACCUCGGCGGUCC
B3: hSLIV 6 bp stem (structured_RNA)
RNA: GGACCUAUUGCAGUACCUGGUCC
B4: dSLIV (structured_RNA)
RNA: GGGCCCGGUAUUGCAGUACCGCCGGGUCC
B5: hSLIV 2AP9 (structured_RNA)
RNA: GGCCGUAUUGCAGUACCUCGGCC
modifications: 2-aminopurine at position 15 (loop A9), written as A
B6: dSLIV 2AP9 (structured_RNA)
RNA: GGCCGUAUUGCAGUACCGCGGCC
modifications: 2-aminopurine at position 15 (loop A9), written as A

The binders below were run against T1, U2B" (Homo sapiens, UniProt P08579 1-225) (assay: filter binding).
T1 sequence (P08579 whole entry): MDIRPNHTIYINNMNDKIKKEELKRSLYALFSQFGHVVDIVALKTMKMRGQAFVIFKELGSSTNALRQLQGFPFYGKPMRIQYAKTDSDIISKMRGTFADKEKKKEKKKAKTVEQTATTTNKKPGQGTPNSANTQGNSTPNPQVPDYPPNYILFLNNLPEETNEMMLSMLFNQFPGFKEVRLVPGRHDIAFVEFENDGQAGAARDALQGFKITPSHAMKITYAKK
B1 showed a Kd of 1 nM. B2 gave a Kd of 2.1 nM. B3 gave a Kd of 2 nM. In the case of B4, the Kd is reported as 2 nM. Binder B5 has a Kd of 2 nM.

Target: T1, U2B"
Assay: filter binding
Remark: another data set of the same source
B6: binds.
